The values that follow come from PMC6364316 (Vaccine, 2018).

Assay [1] has as its target T1, gp120 (HIV-1, strain  for this …, UniProt Q75760). Description: SPR. Background: Surface plasmon resonance follows binding to a sensor surface in real time, without labels.
The target of assay [2] is T1, gp120. Description: ELISA.

B1: IgG b12 (antibody, V domains shown)
VH: QVQLVQSGAEVKKPGASVKVSCQASGYRFSNFVIHWVRQAPGQRFEWMGWINPYNGNKEFSAKFQDRVTFTADTSANTAYMELRSLRSADTAVYYCARVGPYSWDDSPQDNYYMDVWGKGTTVIVSS
VL: EIVLTQSPGTLSLSPGERATFSCRSSHSIRSRRVAWYQHKPGQAPRLVIHGVSNRASGISDRFSGSGSGTDFTLTITRVEPEDFALYYCQVYGASSYTFGQGTKLERK
In the case of B1, in the assay with gp120 [1], the Kd (as a rule, the constant that tells how readily two partners part at equilibrium) was 36 ± 2 nM and the koff (as a rule, the first-order rate constant of dissociation) was 0.0052 s⁻¹. Moreover, the “10 times EC50” value in the assay with gp120 [2] was found to be 1 µg/mL.
